Changes are numbered by the printed parent chain.
B1: unnamed (protein)
chain: MMNFNNVFRWHLPFLFLVLLTFRAAAADTLLILGDSLSAGYRMSASAAWPALLNDKWQSKTSVVNASISGDTSQQGLARLPALLKQHQPRWVLVELGGNDGLRGFQPQQTEQTLRQILQDVKAANAEPLLMQIRLPANYGRRYNEAFSAIYPKLAKEFDVPLLPFFMEEVYLKPQWMQDAGIHPNRDAQPFIADWMAKQLQPLVNHDS
B2: unnamed (protein)
chain: B1 chain with A180D
B3: unnamed (protein)
chain: B1 chain with G70A, A180D
B4: unnamed (protein)
chain: B1 chain with A180D, H183A
B5: unnamed (protein)
chain: B1 chain with S36A, A180D
B6: unnamed (protein)
chain: B1 chain with N99A, A180D

substrate: p-NP-C4; conditions: pH 7; 37 °C

Protein | Km [µM] | kcat [s⁻¹] | kcat/Km [M⁻¹ s⁻¹]
B1 | 1880 | 5.98 | 3180
B2 | 870 | 15.3 | 17600
B3 | 1100 | 3.16 | 2870
B4 | 610 | 0.0093 | 15.2
B5 | 1550 | 0.16 | 103
B6 | 1660 | 12 | 7220
